Reference: patent publication US20170072062A1 (published 2017)
Ends that are not written are not given here. * marks the point of attachment. Methacryloyl = C=C(C)C(=O)*

T1: TRAP deposited by previous osteoclast activity on human cortical bone wafers (human, UniProt P13686 22-325, limits assumed)
T1 construct: The target is TRAP on a bone surface, not purified protein; The species follows from the human donor bone; also called bone resorption pits
T1 sequence (looked up): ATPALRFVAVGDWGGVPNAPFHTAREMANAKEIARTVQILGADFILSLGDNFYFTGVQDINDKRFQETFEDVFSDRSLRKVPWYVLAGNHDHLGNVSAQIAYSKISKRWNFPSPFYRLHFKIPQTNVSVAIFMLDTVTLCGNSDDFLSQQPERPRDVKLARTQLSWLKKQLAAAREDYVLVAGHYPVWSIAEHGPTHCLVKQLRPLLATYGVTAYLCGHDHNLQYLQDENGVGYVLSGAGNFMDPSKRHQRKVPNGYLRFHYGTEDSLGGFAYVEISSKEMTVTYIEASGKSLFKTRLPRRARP


Key:
[1] = target: type V tartrate-resistant acid phosphatase (TRAP) protein, immobilised on CM5 sensor chip; test: SPR, TRAP on CM5 chip, initial rate analysis of sensorgrams
[2] = target: type V tartrate-resistant acid phosphatase (TRAP) protein, immobilised on CM5 sensor chip; test: SPR, TRAP on CM5 chip, binding curve fit (n = 2, Ave. ± StDev)
[3] = target: type V tartrate-resistant acid phosphatase (TRAP) protein, immobilised on CM5 sensor chip; test: SPR, TRAP on CM5 chip, binding curve fit
[4] = target: type V tartrate-resistant acid phosphatase (TRAP) protein, immobilised on CM5 sensor chip; test: SPR, TRAP on CM5 chip, steady-state response vs concentration fit
[5] = target: type V tartrate-resistant acid phosphatase (TRAP) protein, immobilised on CM5 sensor chip; test: SPR, TRAP on CM5 chip; upper end of a range told of the peptide-functionalized polymers
[6] = target: type V tartrate-resistant acid phosphatase (TRAP) protein, immobilised on CM5 sensor chip; test: SPR, TRAP on CM5 chip; lower end of a range told of the peptide-functionalized polymers
[7] = target: T1, TRAP deposited by previous osteoclast …; test: confocal imaging of fluorescent peptide on human cortical bone wafers decorated with TRAP
Protocol: Equal concentrations of fluorescently labeled TBP and SCP are prepared in 1× phosphate-buffered saline (PBS). Bone wafers are cut from cortical bone obtained from the femur of a human donor cadaver and incubated in peptide solutions overnight, washed twice with 1×PBS, and then visualized via confocal imaging. Stacked sections are compressed into 2D images to allow for qualitative analysis as in FIG. 3A through FIG. 3D.

Row | Binder | Kd [1] | Kd [2] | further results
1 | Methacryloyl-TPLSYLKGLVTVG (not fully specified; also: RAFT copolymer with PEG methyl ether methacrylate, about 11 peptides per chain) [5% TBP-functionalized PEG polymer, M:CTA:I 600:1:0.1, Mn 98.2 kDa (Table 4)] | 140 µM | – | –
2 | Methacryloyl-TPLSYLKGLVTVG (not fully specified; also: RAFT copolymer with PEG methyl ether methacrylate, about 5 peptides per chain) [5% TBP-functionalized PEG polymer, M:CTA:I 250:1:0.1, Mn 42.3 kDa (Table 4)] | 80 µM | – | –
3 | Methacryloyl-TPLSYLKGLVTVG (also: RAFT copolymer with PEG monomethyl ether methacrylate, multivalent) [10% peptide monomer TBP-functionalized PEG polymer (Table 1, Mn 69000 Da)] | – | 12.7 µM | –
4 | TPLSYLKGLVTVG [TRAP-binding peptide (TBP)] | – | 795 µM | Kd [3]: 700 µM; Kd [4]: 200 µM
5 | Methacryloyl-TPLSYLKGLVTVG (also: RAFT copolymer with PEG monomethyl ether methacrylate, multivalent) [5% peptide monomer TBP-functionalized PEG polymer (Table 1, Mn 103900 Da)] | – | 21.7 µM | Kd [5]: 7.1 to 21 µM
6 | Methacryloyl-TPLSYLKGLVTVG (also: RAFT copolymer with PEG monomethyl ether methacrylate, multivalent) [20% peptide monomer TBP-functionalized PEG polymer (Table 1, Mn 26700 Da)] | – | 7.5 µM | Kd [6]: 7.1 to 21 µM
7 | VPVGTLSYLKLTG (also: fluorescent cadaverine coupled, site not given here, also called fluorescently labeled SCP; Control (SCP)) [fluorescently labeled scrambled control peptide (SCP)] | – | – | binding result [7]: no binding

More lines, main results first:

Row | Kd [1] | Kd [2] | Binder | further results
8 | 70 µM | – | Methacryloyl-TPLSYLKGLVTVG (not fully specified; also: RAFT copolymer with PEG methyl ether methacrylate, about 3 peptides per chain) [5% TBP-functionalized PEG polymer, M:CTA:I 125:1:0.1, Mn 17.1 kDa (Table 4)] | –
9 | 60 µM | – | Methacryloyl-TPLSYLKGLVTVG (not fully specified; also: RAFT copolymer with PEG methyl ether methacrylate, about 9 peptides per chain) [10% TBP-functionalized polymer (pTBP), M:CTA:I 300:1:0.1, Mn 40.1 kDa (Table 4)] | –
10 | 70 µM | – | Methacryloyl-TPLSYLKGLVTVG (not fully specified; also: RAFT copolymer with PEG methyl ether methacrylate, about 12 peptides per chain) [20% TBP-functionalized PEG polymer, M:CTA:I 500:1:0.1, Mn 32.7 kDa (Table 4)] | –
